Measurements from the domain aggregation screens of Martell et al. (2025).

Assay: soluble fraction after stress (log2 fold change); higher = more stays soluble; pooled small domains, quantitative proteomics
Conditions: stress: 50 degC
Summary of the method: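 The stress applied to every library was 50°C. These custom libraries of small protein domains were pooled and measured at high throughput with quantitative proteomics as the read-out. Aggregation propensity is expressed as the base-two logarithm of the fold change in how much of each protein remains soluble. The higher the value, the more of that protein stays in solution.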

Row | Sequence | soluble fraction (log2)
1 | HMSNIIGNTAYSAIPDKQYFRLKSETAEKVANYLTENNIPFSGRINGDKTTLTIGQKNVDDYKAAVATVTG | 0.0593
2 | HMRKYKIKEELPDNIYKIIQDNPGIVQKDIYDILGREYQQNISSYIYSMDKNGVIKRDKHGNSYKLYL | -0.318
3 | HMTLKVQLSEISKMVSLSYIAKKYFNKSQSWLSQRINGNTIHNKPAKFTSEELATLQFALKDIGNILNSTV | -2.8
4 | HMLNIVTIFEEQFGRPLSPIELNIIKDWKESDYSDEMIVKALKEAVKSQVLNFRYVEGILNNWAKNG | -0.568
5 | HMLVSPLDEIPGIGRNRKKTLLNHFGSAKTIEGASLEDLKKVDGISELIAKKIYNYFHLNKNF | -0.411
6 | HMVLMPIDALRGSSSSSEMRIAAVKFSPSKGWYFSLQERSDEGSSYYEQKVASDGSVSERVKVR | -0.561
7 | HMNEQKVSSLLTPRQLAFIDEYLIDFNGAQAAIRAGYSHKTAGPQAARLLVNVNISRMIAERIEARNK | -1.7
8 | HMKKYDIKEAQEIAEINRIPGLVTTSHGRRVYFDPKIMQYVSEEQIVKKYGQKTVKMLDQWYVSNILNK | -0.0388
9 | HMNEPITIALREAEEAANKILNEGVHSVELSPQNGYVRRLQHELIARYGLTSASRGSDPSRRVSVGAN | -0.212
10 | HMPEVTMSYSARNQVVSFSKATQYEIVDEFGTVVLRGVGNQATLRYLSRGDYFVNFGAGTEVLKK | 0.000609
11 | HMNPKTELMVYLKKRDEWVASQILSDVLQVSTRTIRKFVKEINMDYQTENVILSSSKGYKLNQNLLSSL | -1.2
12 | HMTETPDDLLAALKKNKKAQATFDAFSPSNKKEYILWITEAKTEATRTKRLETAIEWMSEGKARNW | -0.222
13 | HMDMQNIQKGLSAIEPGRTFSREEYYAAIQNGSEMLLKEDALAYSLRKSLSDGDIVRVSWNQYAIP | -0.116
14 | HMKGMIKVASMSLGADLGLYSRHLKYLGIVHRVVEESGGQSVYIQKLNDLHTAKESLELYLKNELKI | -1.19
15 | HMYNNDEIEKIQTMYNAIYQLNDIEKALIMLFLEDKSYKEIAEIMGISEGNARIKMMRTKDKLKNLISKN | -0.369
16 | HMVFTEEEMLEKIKEYLSTNSYINRRAMETLFNLRQSTALKWLGHFTEIGVLRKEGERNYPVYFLNN | -0.296
17 | HMEREQNIAQGREVVQRELKRLGLTDVFTVEDIGRALKFDDIDEFLSKVGFGDIQTAKITGAIALMQQALR | 0.0611
18 | HMTIAFPSNDVDAVVGYFESRGFDRTASISTATVILQQAKIDGVKVFELIDTLQGMDKVQLSYIVTEILN | 0.03
19 | HMNSKKRQAILESLRSVTDHPTAEMIYNRLKPEYPDLSLGTVYRNLAMFLEEGQVISVGTVDGQERYDAR | -0.306
20 | HMALLSNEDIMFNLEFNRDLAVASNDGVSRDEFLRNKYGISEEEYNMLRARYGDGLNAARIKEYVGQRD | 0.104
21 | HMETLEDHRKKTRQQLFDALSHLLQTSTFESLTMAKIAEEAGVGRTAVYNHFQDKEALLLAFITYETGQ | -1.05
22 | HMGSRAEAKEFLQTMLADGRQLATDMEEARQAHDIADRTLRRARKELNVQVYRDGNAWYWELPTPIK | -0.0501
23 | HMEDIPENIRYKFLLKELKENEHLNILDKENIARKLTEIDLPELEKELLENEILNSTIKDYLGIKLV | 0.173
24 | HMQDRDKNVPAGKELLDNEIARLNMSLKQVEQFALPRYNLKTLEDLYSGIGSGDIRLNHLINFLQSKLI | -0.135
25 | HMDSVSAVRTTHLNSYVLLLEKDGMAAATISRYIASMKGFFEYLFREHMIEEDPAFTLKPPKV | -0.0799

Row | Sequence | soluble fraction (log2)
26 | HMISEKEIKIIEDILARWNGKLTWDDFTSKVAKKLNLPSLSKFTLMGYPEIKQAFLTRKQTLK | -0.328
27 | HMSGKWSILILHALEQGPKRFNVLHRELSGITQATLTKQLRQLEEDGIILRKAYPQIPPKVEYQLTEIG | -1.74
28 | HMAAEGARNNSLFNSLRERALEVSSHNELEQIAFKMNETNIPPLRASEVISVVNSVWKNRISNQIIP | 0.155
29 | HMANEGWDIYKLDIRNHKQPNGEYYSEKEIQSTINNTFGKGSFNVDWKKYEKDKEYREKTNYYYFQAKYFV | -0.19
30 | HMYIDANTALLAKRIQAKNGFLPLSDKSTAEEIYAEFGISKKAFKKALGALYKERLVRIGDEGVVWV | -1.79
31 | HMIQHFARKRRQLELAVQRLSGRMAETNGQVTADMQRLIQQVKALVAELSHVFSRAYLRRVLGGVALVIGS | -0.104
32 | HMEYSTLEIYSQTKKDLIEKSPHLNKVVYDKDDGYIYLLSFEKEDDLTSFKSNIENDSDIKRIEANV | 0.0917
33 | HMQRADYLILYYIKMQAEQHPDSKVYLADLAAVMGLKVTELSKAVEKLQDNGFVAWKTDREAGRTYVELS | -1.31
34 | HMQPPKIISTVEPYREVVREYLKQGVEMTAIWQRLRENYQYTGSYSSVRRFVAQLEPRQPEA | -1.01
35 | HMQAPHLALSPREFQVLQGLLAGDALDIIAERLHLSAKTVSNHQTLIRQKLGVGNAVELLRYAQLHRL | -2.15
36 | HMFPELSEEEQIIVSLLQKQPDGLQINTLVVESNIPVNRMSGILFELEMKGIIRMAAGGVYRLL | -0.203
37 | HMENTSPMTPEQSKALMAYLTKRHGDSREAYLSELSQFFGRPLSSSRELTKADVSEFLNAIN | 0.161
38 | HMDSPRITMDQLRIGLYVYLDLTWFQHPFAFSHFKINSEDQIKTILGLGLKSVRYDPALSDPV | -2.67
39 | HMEIPMRDKLKTYIDYLFAGAPQTAATAETKAEILQNTLDKYDDLIAEGKTPEAAYSLAVSGIGDLGDF | -0.0827
40 | HMTEPKILTAEESQRLDLILVQQWPELGRRALRELVQQGGVRINGELALKAGQYVQAGERVEVAVP | 0.0571
41 | HMRSVTLQTDREGDILYVDGKQIGVSPQRLELSYGVHTIRAERGEQHTEKELEVTETGGETVVTLGFG | 0.129
42 | HMTDLDVAVTMTVALEEAVNGATRRVRLPNGKELNVKIPAGVAAGQQIRLKGQGETAPGHRPGDVLITVNI | -0.262
43 | HMDFSERLARAMSLAGYTQGRLAKEVGMAQSSVNKLLNGANGSRKTVEIASVLGVRPEWLSTGAGEML | -0.371
44 | HMENYIEQLTAKNSEYIHVVTRELVKIGKSDEEIKAILSDILPQIVAAQDQRVLAKDILGTPSEFTAKYAP | 0.173
45 | HMSDTFENILQRLIKATGRKNASEMANALGLSPQSVYSAKTKGKIPPAWIFAAAERFNASADWIYFGY | -1.01
46 | HMRNAAGGIYGWMTLHQVAETVKLTEEEVIAITNLPAGIPRDVSLKNIEGVNDEELRALLEAYLEKQ | -0.151
47 | HMSDLPLLEHARQNLSDDEFRILELTTIYGYRRVEVAKMLGEPISTINWKYNKLIKKVKTFYGEVYN | -1.02
48 | HMQVITEPFQEKYREFINMSTVTQRLEERETLSFTAQTVEGRWLTIIIVPQGYDKTGKLSTVLVANR | 0.179
49 | HMATLQLPVPKITLYPGELIRSDHLTDQRFNARALYHSAVYKSREDIVGKVARRTLLPGQPIPVNALR | -0.057
50 | HMTGKTTLEYLNPLLERGIPVWDYLAKASGKAKEEVQEMVSKGLVPGAEAAKAIADYMGAEFAGSMA | 0.0316

Row | Sequence | soluble fraction (log2)
51 | HMKTTKRERARAKLIQLLENEDRPAKEIYAGLGDIGVGSRTVEKVKKELQVTTYRSGGSWYWSLPKP | -0.169
52 | HMTDFDPDGREKLIKVQKALHFNNHQLADALRVGQATFSSYIYGRVAAGVPVRVVKAAEDLLKNSKATV | -0.303
53 | HMASVRPVAPPDPKTHTRLTYRIRRGDTLERIGRRYRVSIAEIQAWNTLRDPGDILAGQRLVIWIPTS | -2.3
54 | HMVLNVMIEEEVHREIIAAISKLPKERRRVVELSMAGFSQEEIAEKMAISVNTVKTIKLRAYRVLRERLKG | -3.18
55 | HMIEYILDYLANRGVYAASQGEQQQMEDGIARYLQENGLEDGNTGAYYQKYVSNHLQQISASDLKAYFLN | -0.529
56 | HMDGLPYPEAAEEPIAQVARNLGMDATRVSIALQEAKLIFRNLDETLAEIAANNGTTPQVVYDAIRHLEPP | -0.095
57 | HMEAYMVPNVKNKTLNEAQQALSNQKLKGLVIDSSYVKGVPDGMVLDQNPAGGARVKEGRTIYLTVTTS | 0.318
58 | HMLQQNRAVEAEQLARKGLSYAQSNIQQAALWRLVAEATEQQGKVDAALNAKNKAMQLEMAG | 0.173
59 | HMVSRAFEEETVKRAESGNQEAALFALELAIREIEHSYEKSKIIDYFVSKVRLFLDNGVSLERALGIH | 0.0637
60 | HMDYEVPEELEEKFSENPQFKEAFDNLTPGRQHQYIYHISQAKRSQTRINRIEKYYEHILNGKGMQD | 0.0659
61 | HMSWAAQVVDKMTNDQLIKSLNEIVNTGKQLGLDITVEQNGDKNFIMTVKDSKGNVQLVTPIG | -0.0133
62 | HMGQKDYKTRLQEYFAKQGLKVNYEDTSHGPDHNKNFSTDVFLDGKIIGSGIGKSKKSSQQSAAKDALNIL | 0.338
63 | HMEELPIIVAQRFLNIFRQLHIFSDERREAFNKMLLELPPEVKSIFQSLPGGTPLQEYMEDLEQKSK | -0.055
64 | HMINVVDEVIKHLETNIISGFWAPGQKIDSEATLSKQLNVSRASIHTAIQQLIATGVLESFQGKGTFVRS | -0.624
65 | HMAGAITEREVEVLELLSRGLGNKEIAKELFVSEATVKSHLSHIYTKLAVDTRAGAVAAAIERRIIRAWR | -1.92
66 | HMSVLLDDLSPREREILQLVVEGHSSTKIAGMLGLASATVDTYRSRLMAKLHIDNLPDLVRFAIRHGLIS | -1.22
67 | HMDGSEYAGTVRLGDGTLQPVPRFETSNSETPKYLYLVMDVTHDPPVYILEHESAELKSVLGGLVLIGSYS | 0.0759
68 | HMETLETYTSRLRQLEDITNNFKGVDKSFAIQAGREIRVMVVPEQVSDADMILMARDISKAIEAELEYPGQ | -0.0847
69 | HMNAESLIGDRAVVTVAIERNKRGRVDVTGQDWAATTRDGEEIKVGQEVLVVGISGVALIVEER | -0.426
70 | HMNPLPALLRYFRQKAGLTQQDVAAALSISRSGYANYEEGRNIPNIEQAIKLSELLNHDFLYAYTLSS | -1.99
71 | HMEDKFEYQGELKSLIEPTSFSELVSALNVRDTLQAIIDFAMREEDTSGYEELKVRQNDYIQEYLNSIGNF | -1.04
72 | HMPFDWSAFDWKGWADEALAIIKTANQDQMNKWTEDNEKIIVQAETAAPDIYKTVGDEYDKKMESFN | 0.11
73 | HMGVTGYPNPTREHITWDDARRIEVWNAYGVPVADLRFARGVLDVAGWPVGTYVARIDGGRSVRFVVI | -0.19
74 | HMARAGKLAQDMAVWTKETMLNTERNFISLRHFKRELLRRTLAPGESEQTVRAMEEAGYIQVKDGLVFPIK | -1.74
75 | HMSPVKAPLPGVVLDIHVSVGQEVKASDTVVTLEAMKMENAIKAGVDGKVASISVGKGDSVLEGAVLLTI | 0.0738
